The source of these data is patent US20020031803A1.

One assay concerns the target human RB protein (human) (UniProt P06400).
For the next assay, the target named is human p107 (human) (UniProt P28749).
UniProt P28749, sequence (P28749 whole entry): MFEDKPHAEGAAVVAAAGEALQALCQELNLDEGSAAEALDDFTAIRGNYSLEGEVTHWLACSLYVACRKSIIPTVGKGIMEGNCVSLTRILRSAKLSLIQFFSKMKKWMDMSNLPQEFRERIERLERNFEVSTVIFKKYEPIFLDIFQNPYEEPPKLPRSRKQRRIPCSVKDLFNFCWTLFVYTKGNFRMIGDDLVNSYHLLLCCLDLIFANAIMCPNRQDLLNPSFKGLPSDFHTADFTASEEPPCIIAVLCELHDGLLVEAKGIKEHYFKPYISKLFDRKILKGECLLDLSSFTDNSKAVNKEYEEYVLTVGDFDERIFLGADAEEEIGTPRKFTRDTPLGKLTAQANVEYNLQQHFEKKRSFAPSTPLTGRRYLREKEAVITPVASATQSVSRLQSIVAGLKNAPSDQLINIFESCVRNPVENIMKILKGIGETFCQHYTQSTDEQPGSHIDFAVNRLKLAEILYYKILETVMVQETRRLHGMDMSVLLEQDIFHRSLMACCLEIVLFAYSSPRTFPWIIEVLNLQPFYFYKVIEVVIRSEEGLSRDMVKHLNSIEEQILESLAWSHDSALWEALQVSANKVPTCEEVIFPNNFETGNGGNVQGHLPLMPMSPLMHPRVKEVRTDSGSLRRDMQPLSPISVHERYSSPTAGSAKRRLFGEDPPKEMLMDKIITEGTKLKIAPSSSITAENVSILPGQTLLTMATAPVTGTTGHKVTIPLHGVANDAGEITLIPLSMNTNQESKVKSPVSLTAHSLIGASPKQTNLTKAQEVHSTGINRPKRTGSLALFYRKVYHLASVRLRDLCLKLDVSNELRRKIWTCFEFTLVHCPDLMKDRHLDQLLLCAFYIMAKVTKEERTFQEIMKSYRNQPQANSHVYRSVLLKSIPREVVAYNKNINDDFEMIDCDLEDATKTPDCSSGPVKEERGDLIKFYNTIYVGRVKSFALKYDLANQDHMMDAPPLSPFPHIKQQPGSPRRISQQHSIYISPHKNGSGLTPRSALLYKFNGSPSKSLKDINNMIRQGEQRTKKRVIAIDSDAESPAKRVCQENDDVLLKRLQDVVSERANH

UniProt P06400, sequence (P06400 whole entry): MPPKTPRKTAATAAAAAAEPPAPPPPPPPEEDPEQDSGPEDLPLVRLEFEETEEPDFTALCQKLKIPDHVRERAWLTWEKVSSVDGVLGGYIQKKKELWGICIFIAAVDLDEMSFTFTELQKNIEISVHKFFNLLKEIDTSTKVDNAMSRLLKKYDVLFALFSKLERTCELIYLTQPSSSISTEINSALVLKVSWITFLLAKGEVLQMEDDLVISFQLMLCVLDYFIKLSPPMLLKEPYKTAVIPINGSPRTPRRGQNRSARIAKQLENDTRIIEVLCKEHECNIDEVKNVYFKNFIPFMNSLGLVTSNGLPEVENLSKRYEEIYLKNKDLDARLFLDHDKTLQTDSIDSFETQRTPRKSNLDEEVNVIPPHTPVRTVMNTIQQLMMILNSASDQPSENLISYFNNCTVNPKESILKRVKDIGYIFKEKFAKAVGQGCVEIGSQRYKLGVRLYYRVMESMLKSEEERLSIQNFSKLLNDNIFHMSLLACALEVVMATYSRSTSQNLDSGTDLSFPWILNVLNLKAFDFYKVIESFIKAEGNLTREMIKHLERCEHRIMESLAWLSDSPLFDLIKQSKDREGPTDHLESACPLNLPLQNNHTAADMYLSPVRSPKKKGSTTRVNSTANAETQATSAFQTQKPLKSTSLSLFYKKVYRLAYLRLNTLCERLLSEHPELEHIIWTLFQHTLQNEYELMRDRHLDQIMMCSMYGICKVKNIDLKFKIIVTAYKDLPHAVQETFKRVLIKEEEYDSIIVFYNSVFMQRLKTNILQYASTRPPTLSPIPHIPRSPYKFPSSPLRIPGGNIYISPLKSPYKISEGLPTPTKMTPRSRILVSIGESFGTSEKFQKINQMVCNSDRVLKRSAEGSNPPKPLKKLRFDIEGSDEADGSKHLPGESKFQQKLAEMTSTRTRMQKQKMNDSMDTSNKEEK

“wild-type SV40 large T antigen (from UniProt P03070 1-708) (other; other documents disagree on this pair)”: the Observed signal compared to T, % in the assay with human RB protein (human) and with human p107 (human) was 100% in each case.
On to “107-T mutant SV40 large T antigen (lysine for glutamic acid at codon 107) (from UniProt P03070 1-708) (other; other documents disagree on this pair)”, for which the Observed signal compared to T, % with human RB protein (human) came to 0.03%; with human p107 (human) it was 0%.
